From article PMC4749545, “Kindlin-2 cooperates with talin to activate integrins and induces cell spreading by directly binding paxillin” (eLife, 2016)

Target: T1, recombinant murine kindlin-2 (mouse, UniProt Q8CIB5 1-680)
T1 construct: murine kindlin-2, unmodified after SenP2 cleavage of the His10-SUMO3 tandem tag; Vector pCoofy17; also called recombinant kindlin-2; purified kindlin-2; source: E. coli Rosetta, purified (Ni-NTA, SenP2 cleavage, size-exclusion chromatography); not shown: His10, N-terminal, cleaved; SUMO3, N-terminal, cleaved
T1 sequence (looked up): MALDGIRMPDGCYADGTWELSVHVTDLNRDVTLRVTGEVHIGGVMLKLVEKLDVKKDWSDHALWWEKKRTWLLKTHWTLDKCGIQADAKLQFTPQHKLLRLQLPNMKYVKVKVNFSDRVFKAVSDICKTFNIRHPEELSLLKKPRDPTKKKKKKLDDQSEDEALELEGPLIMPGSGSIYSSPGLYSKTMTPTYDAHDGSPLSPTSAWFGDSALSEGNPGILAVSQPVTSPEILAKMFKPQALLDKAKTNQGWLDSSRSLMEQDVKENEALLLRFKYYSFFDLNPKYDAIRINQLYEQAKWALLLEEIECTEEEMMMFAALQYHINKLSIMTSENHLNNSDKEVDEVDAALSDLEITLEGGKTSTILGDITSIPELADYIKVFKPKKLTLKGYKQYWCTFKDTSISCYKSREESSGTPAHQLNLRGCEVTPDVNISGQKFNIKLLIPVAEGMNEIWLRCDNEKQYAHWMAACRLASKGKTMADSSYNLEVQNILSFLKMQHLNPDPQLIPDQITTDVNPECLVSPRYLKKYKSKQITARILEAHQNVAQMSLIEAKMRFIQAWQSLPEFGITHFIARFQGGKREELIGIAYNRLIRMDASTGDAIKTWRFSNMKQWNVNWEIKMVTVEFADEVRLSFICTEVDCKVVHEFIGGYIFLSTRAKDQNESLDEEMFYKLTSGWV
Test: pull-down; His10-tagged paxillin-LIM3 (35 µg) or paxillin-FL (10 µg) on Ni-NTA agarose, washed with 1 mM ZnCl2; 14 µg purified kindlin-2 added for 30 min at 4°C; 20 mM Tris pH 7.5, 200 mM NaCl, 1 mM TCEP, 0.05% Tween20; washes with 25 mM imidazole and 1 mM ZnCl2; SDS-PAGE
Settings: both partners purified

B1: His10-SUMO3-paxillin-LIM3 domain (domain or fragment, mouse, UniProt Q8VI36 473-533, looked up)
chain: APKCGGCARAILENYISALNTLWHPECFVCRECFTPFVNGSFFEHDGQPYCEVHYHERRGS
notes: paxillin LIM3 domain, A473-S533; Vector pCoofy17. 'murine' in the sentence of the methods stands before kindlin-2 and may or may not hold for paxillin-LIM3; also called His10-LIM3; His-tagged paxillin-LIM3 domain; source: E. coli Rosetta, purified (Ni-NTA, size-exclusion chromatography); not shown: His10, N-terminal, kept; SUMO3, N-terminal, kept
B1: binds.
